Laboratory results reported in publication PMC10418727, “Structural and Biochemical Insights into Bis(2-hydroxyethyl) Terephthalate Degrading Carboxylesterase Isolated from Psychrotrophic Bacterium Exiguobacterium antarcticum” (International Journal of Molecular Sciences, 2023).

Substrate: CC(=O)Oc1ccc([N+](=O)[O-])cc1
Assay: purified protein
Type: biochemical, Exiguobacterium antarcticum
Details: optimal conditions (optimal pH 7.0), free enzyme

B1: EaEst2 (Exiguobacterium antarcticum) (protein)
chain: MKITLPKPFFFEGGNRAVLLLHGFTGSSADVRMLGRYLQKHGYTSLAPQYKGHAAPPEELTKTGPADWWQDVLDGYEELKAKGYDEIAVCGLSLGGVMSLRLSMHRPVKAVIPMCAPAYIKSEDVMYAGVTEYAREFKKREGKSVDEIEQEMAVFEPMPTLKDLQALLKETRDSLEDVYAPTLVVQARNDHMINTDSANIIHDGVSALQKELIWYENSGHVITLDKEKETLHQDIHEFLDGLNWSH
notes: full-length gene in pET-28a (NheI/XhoI), N-terminal 6xHis tag, E. coli BL21(DE3); monomer; catalytic triad Ser93, Asp190, His220; motif GLSLG 91-95
- Km: 590 µM
